In publication PMC7498355, “A quantitative binding model for the Apl protein, the dual purpose recombination-directionality factor and lysis-lysogeny regulator of bacteriophage 186” one finds binding result and Kd data, which are given here for 10 molecules.

What all share (settings): protein: recombinant; label: 32P end label on one strand; blunt
Data set [1] concerns the target T1, Apl (bacteriophage 186, UniProt P21681 1-87).
T1 sequence: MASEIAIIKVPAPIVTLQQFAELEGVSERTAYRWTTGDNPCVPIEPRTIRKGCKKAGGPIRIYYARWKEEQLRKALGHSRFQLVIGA
The experiment in a line: EMSA; up to 6400 nM Apl; EMSA: 50 mM Tris-HCl pH 7.5, 0.1 mM EDTA, 10% glycerol, 150 mM NaCl, on ice >=30 min, gel at 4 C; bending in TEG 50; footprint: same Tris/EDTA/glycerol with 75. (Mobility shift assays separate free from complexed probe on a gel.)

Data set [2] deals with T1, Apl. The experiment in a line: EMSA; pattern similar to central five pR-pL operators; EMSA: 50 mM Tris-HCl pH 7.5, 0.1 mM EDTA, 10% glycerol, 150 mM NaCl, on ice >=30 min, gel at 4 C; bending in TEG 50; footprint: same Tris/EDTA/glycerol with 75.
The target in data set [3] is T1, Apl. The data set can be described thus: EMSA; apparent Kd (50% DNA unbound); EMSA: 50 mM Tris-HCl pH 7.5, 0.1 mM EDTA, 10% glycerol, 150 mM NaCl, on ice >=30 min, gel at 4 C; bending in TEG 50; footprint: same Tris/EDTA/glycerol with 75.
Data set [4] has as its target T1, Apl. The experiment in a line: EMSA; two retarded bands; EMSA: 50 mM Tris-HCl pH 7.5, 0.1 mM EDTA, 10% glycerol, 150 mM NaCl, on ice >=30 min, gel at 4 C; bending in TEG 50; footprint: same Tris/EDTA/glycerol with 75.
The target in data set [5] is T1, Apl. The data set can be described thus: EMSA; multiple shifted species; EMSA: 50 mM Tris-HCl pH 7.5, 0.1 mM EDTA, 10% glycerol, 150 mM NaCl, on ice >=30 min, gel at 4 C; bending in TEG 50; footprint: same Tris/EDTA/glycerol with 75.

B1: Apl 10101 (dsDNA)
DNA 1: AACCCACGCAATTGACTTAGGGTGTTGGCAAACAGCTTAGGATCAATTGCAAACTT
DNA 2: AAGTTTGCAATTGATCCTAAGCTGTTTGCCAACACCCTAAGTCAATTGCGTGGGTT
Consider B1, for which, in the data set with Apl [1], the binding result is listed as “no binding”.

B2: attP 5 (dsDNA)
DNA 1: ATCATTGACATAGATTGCCATTGTTTGCCAATAATTACCTATTATTCGCCATTTC
DNA 2: GAAATGGCGAATAATAGGTAATTATTGGCAAACAATGGCAATCTATGTCAATGAT
On to B2, for which, in the data set with Apl [2], the binding result is “binds”.

B3: Apl 1101 (dsDNA)
DNA 1: AACCCACGCAATTGATGGCAAGTGTCTTAGGACAGAGTCAAATCA
DNA 2: TGATTTGACTCTGTCCTAAGACACTTGCCATCAATTGCGTGGGTT
As to B3, the binding result with Apl [1] is “no binding”.

B4: Apl 3 (111) (dsDNA)
DNA 1: TTGATGGCAAGTGTTGGCAAACAGAGTCAAATCA
DNA 2: TGATTTGACTCTGTTTGCCAACACTTGCCATCAA
In the case of B4, the Kd with Apl [3] is about 800 nM.

B5: Apl 4 (dsDNA)
DNA 1: TTGATGGCAAGTGTTGGCAAACAGAGTCAAATCAATTGCAAACTT
DNA 2: AAGTTTGCAATTGATTTGACTCTGTTTGCCAACACTTGCCATCAA
B5: the binding result with Apl [4] was “binds”.

B6: Apl 2 (two pR-pL operators) (dsDNA)
DNA 1: TTGATGGCAAGTGTTGGCAAACAG
DNA 2: CTGTTTGCCAACACTTGCCATCAA
With B6, the binding result in the data set with Apl [1] is listed as “no binding”.

B7: Apl 6 (dsDNA)
DNA 1: TATTTTGGCTAAACCCACGCAATTGATGGCAAGTGTTGGCAAACAGAGTCAAATCAATTGCAAACTT
DNA 2: AAGTTTGCAATTGATTTGACTCTGTTTGCCAACACTTGCCATCAATTGCGTGGGTTTAGCCAAAATA
Take B7: the binding result with Apl [5] is listed as “binds”.

B8: Apl 5 (dsDNA)
DNA 1: AACCCACGCAATTGATGGCAAGTGTTGGCAAACAGAGTCAAATCAATTGCAAACTT
DNA 2: AAGTTTGCAATTGATTTGACTCTGTTTGCCAACACTTGCCATCAATTGCGTGGGTT
On to B8, for which the binding result in the data set with Apl [4] is reported as “binds”.

B9: Apl 7 (dsDNA)
DNA 1: TATTTTGGCTAAACCCACGCAATTGATGGCAAGTGTTGGCAAACAGAGTCAAATCAATTGCAAACTTTGGCTAATAGG
DNA 2: CCTATTAGCCAAAGTTTGCAATTGATTTGACTCTGTTTGCCAACACTTGCCATCAATTGCGTGGGTTTAGCCAAAATA
Take B9: the Kd in the data set with Apl [3] is about 275 nM.

B10: Apl 101 (dsDNA)
DNA 1: TGATGGCAAGTGTCTTAGGACAGAGTCAAATCA
DNA 2: TGATTTGACTCTGTCCTAAGACACTTGCCATCA
Turning to B10, the binding result with Apl [1] is listed as “no binding”.
